Measurements as given in patent US20250042994A1 (HAINAN SIMCERE ZAIMING PHARMACEUTICAL, published 2025).

T1: human CD19 on Raji cells (human, UniProt P15391 20-556)
T1 construct: whole, on cells
T1 sequence (looked up): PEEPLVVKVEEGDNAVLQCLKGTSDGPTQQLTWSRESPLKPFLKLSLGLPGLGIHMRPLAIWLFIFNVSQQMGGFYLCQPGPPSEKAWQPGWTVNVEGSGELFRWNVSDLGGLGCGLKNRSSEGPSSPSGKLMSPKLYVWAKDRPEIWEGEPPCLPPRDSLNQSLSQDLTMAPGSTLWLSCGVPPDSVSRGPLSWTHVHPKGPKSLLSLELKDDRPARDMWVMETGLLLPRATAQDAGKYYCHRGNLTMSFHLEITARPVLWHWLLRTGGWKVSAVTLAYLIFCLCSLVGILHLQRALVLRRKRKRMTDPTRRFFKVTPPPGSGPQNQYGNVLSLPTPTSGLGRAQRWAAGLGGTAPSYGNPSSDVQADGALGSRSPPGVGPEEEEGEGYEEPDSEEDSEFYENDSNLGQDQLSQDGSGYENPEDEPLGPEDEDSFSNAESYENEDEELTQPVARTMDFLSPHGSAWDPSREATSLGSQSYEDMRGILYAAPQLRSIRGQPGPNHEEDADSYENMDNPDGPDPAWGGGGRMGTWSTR

T2: human CD19 on CHO-K1-human CD19 cells (human, UniProt P15391 20-556)
T2 construct: whole, on cells; also called CHO-K1-human CD19-2C8
T2 sequence (looked up): T1 sequence (looked up)

T3: cynomolgus monkey CD19 on peripheral blood B cells (cynomolgus monkey (Macaca fascicularis), UniProt A0A2K5W8L9 20-557)
T3 construct: whole, on cells; also called cynomolgus monkey B cells
T3 sequence: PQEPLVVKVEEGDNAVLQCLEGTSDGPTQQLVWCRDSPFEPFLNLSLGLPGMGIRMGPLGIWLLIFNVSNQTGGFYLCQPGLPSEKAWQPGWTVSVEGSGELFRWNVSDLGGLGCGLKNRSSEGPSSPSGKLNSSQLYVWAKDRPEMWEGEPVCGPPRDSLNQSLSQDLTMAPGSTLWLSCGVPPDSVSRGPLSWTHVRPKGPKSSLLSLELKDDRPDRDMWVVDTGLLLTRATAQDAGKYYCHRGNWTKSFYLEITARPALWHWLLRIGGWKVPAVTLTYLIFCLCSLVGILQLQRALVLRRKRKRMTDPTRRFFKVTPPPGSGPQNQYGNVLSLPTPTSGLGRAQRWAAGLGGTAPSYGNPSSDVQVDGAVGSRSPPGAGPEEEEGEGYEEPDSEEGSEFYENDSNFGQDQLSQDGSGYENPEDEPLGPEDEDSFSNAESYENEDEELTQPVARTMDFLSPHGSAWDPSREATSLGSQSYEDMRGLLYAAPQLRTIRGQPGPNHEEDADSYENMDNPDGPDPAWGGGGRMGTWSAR

B1: F6.12.12 (antibody, human IgG1, V domains shown)
VH: DVQLQESGPGLVKPSQSLSLTCSVTGYSITSGYYWIWIRQFPGNKLEWMGYISYDASNKYKPSLKNRISITRDTSKNQFFLKLNSVTAEDTATYFCAREDLRGYFDVWGTGTSVTVSS
VL: DIVLTQSPASLAVSLGRRATISCRASQSVSTSGFSYMHWYQQKPGQPPNLLIKYASILQSGVPARFSGSGSGTDFILNIHPVEDVDTATYYCQHSWGIPFTFGSGTKLEIK
notes: human-murine chimeric antibody, human IgG1
B2: F1-mab003 (antibody, human IgG1, V domains shown)
VH: EVQLQQSGPELVKPGASVKMSCKASGYTFTDYVMHWVRQTPGQGLEWIGYFNPYNDGTNYNEKFKVKATLTSDKSSTTAYMELSSLTSEDSAVYYCARGVYYYGRDFDYWGQGTTLTVSS
VL: DVVLTQTPLSLPVSLGDQASISCRSSQSLENSNGNSYLNWYLQKPGQSPQLLIYRVSNRFSGVLDRFSGSGSGTDFTLKISRVEAEDLGVYFCLQITHVPWTFGGGTKLEIK
notes: as for B1
B3: F3.3.10 (antibody, human IgG1, V domains shown)
VH: DVQLQESGPGLAKLSQSLSLTCSVTGYSITSGYYWNWIRQFPGNKLEWMGHISYDGNNNYNPSLKNRISITRDTSKNQFFLKLNSVTTEDTATYYCARENYSNYYFDYWGQGTTLTVSS
VL: DIVLTQSPASLAVSLGQRATISCRASQSVSKSSYTYIHWYQQKPGQPPKLLIKYASILQSGVPARFSGSGSGTDFTLNFHPVEEEDTATYYCQHSWEIPYTFGGGTKLEIK
notes: as for B1
B4: F4.276.12 (antibody, human IgG1, V domains shown)
VH: EIQLQQSGPELVKPGASVKVSCKASGYAFSAYNMYWVKQSHGKSLEWIGYIDPYNGGTNYNQKFKGKATLTVDKSSSTAYMHLNSLTSEDSAVYYCARDGYEVTYWGQGTLVTVSA
VL: QIVLTQSPALMSASLGEEITLTCSASSSVTYMHWSQQKSGTSPRLLIYSTSNLASGVPSRFSGSGSGTFYSLTISSVEAEDAADYYCHQWSSYPWTFGGGTKLEIK
notes: as for B1
B5: F3.5.1 (antibody, human IgG1, V domains shown)
VH: QAQLQQSGPELVKPGASVKISCKASGYAFSGSWMNWVQQRPGKGLEWIGRIYPGDGDTYYNGKFKDKAILTADKSSSTAYMQLSSLTSEDSAVYFCAQLRYRYVMDYWGQGTSVTVSS
VL: DIVLTQSPASLAVSLGQRATISCRASESVSIHGSHLMHWYQQKPGQPPRLLIYAASNLESGVPARFSGSGSETDFTLNIHPVEEEDAATYFCQQGIKDPYTFGGGTKLEIK
notes: as for B1
B6: F2.15.26 (antibody, human IgG1, V domains shown)
VH: QVQLKESGPGLVAPSQSLSITCTVSGFSLTDYGVSWIRQSPGKGLEWLGVIWGSGDTYYNSVLESRLSINKDNSKNQVFLKMNSLQTDDAAMYFCAKHSYYGGSFAMDYWGQGTSVTVSS
VL: DIQMTQTTSSLSASLGDRVTISCRASQDISNYLNWYQQKPDGTVKLLIYYTSRLHSGVPSRFSGSGSGTDYSLTISNLEQEDIATYFCQQGKTLPWTFGGGTKLEIK
notes: as for B1

Biological target: T1, human CD19 on Raji cells
Assay: FACS on Raji cells
Description: (§1) The desired cells were scale-up cultured in a T-75 cell culture flask to the logarithmic growth phase. For the adherent cell CHO-K1, the medium was aspirated, the cells were washed 2 times with a PBS buffer, and then digested with trypsin. After the digestion was terminated, the cells were washed 2 times with a PBS buffer; and for suspension cell Raji, the supernatant of the medium was discarded by directly centrifugation, and the cell pellet was washed 2 times with PBS. After counting the cells in the previous step, the cell pellet was resuspended with [PBS+2% (w/w) BSA] blocking solution to 2×10⁶ cells/ml, and added to a 96-well FACS reaction plate at 50 μl/well, and then the sample to be tested was added at 50 μl/well, and incubated on ice for 2 h. The obtained mixture was centrifuged and washed 3 times with a PBS buffer. […] The obtained mixture was centrifuged and washed 5 times with a PBS buffer, and FACS (FACS Canto™, purchased from BD Company) was used for detection and result analysis. Data analysis was performed by software (FlowJo) to obtain the mean fluorescence intensity (MFI) of the cells. And then software (GraphPad Prism8) was used for analysis, data fitting, and EC50 value calculation. […] The same method was used to detect the binding of the chimeric antibodies to endogenous CD19-negative cells, MoLT4 cells (purchased from ATCC, CRL-1582), and CHO-K1 cells.

Binder	EC50 [nM]	Maximum mean fluorescence intensity
B1	5.25	43300
B2	0.57	33100
B3	2.9	29700
B4	0.78	23500
B5	1.47	24800
B6	0.53	29200

Biological target: T2, human CD19 on CHO-K1-human CD19 cells
Assay: FACS on CHO-K1-human CD19 cells
Description: as §1

Binder	EC50 [nM]	Maximum mean fluorescence intensity
B1	0.84	63300
B2	0.69	66900
B3	1.9	48300
B4	1.05	50200
B5	2.49	49900
B6	0.71	60400

Biological target: T3, cynomolgus monkey CD19 on peripheral …
Assay: FACS, cynomolgus PBMC, CD20+ B cells
Procedure: The monkey peripheral blood mononuclear cells were extracted from fresh cynomolgus monkey peripheral blood (purchased from Shanghai Medicilon Inc.) according to the instructions of Ficoll-Paque Plus (purchased from GE Healthcae, catalog number: 171440-02). After the cell suspension was centrifuged, the cells were resuspended in PBS containing 1% BSA, and then the cells were counted. […] The mixture was incubated for 1 h at room temperature. After washing the cells three times, APC-labeled secondary antibody anti-human IgG Fc (catalog number: 409306, purchased from Biolegend) was added. After incubation at room temperature in the dark for 30 minutes, the cells were washed 5 times, gently resuspended with PBS containing 1% BSA, and detected and analyzed by FACS (FACS Canto™, purchased from BD Company), in which CD20 was used as a marker of B cells to gate the CD20-positive B cell population, the proportion of the chimeric antibody-labeled positive cells was analyzed, and the proportion of the chimeric antibody positive cell population to B cell population was calculated after treatments with the chimeric antibodies at the concentrations of 100 nM, 10 nM and 1 nM, respectively.

Binder	Proportion of chimeric antibody positive cells to B cells (%) at 1 nM [%]	Proportion of chimeric antibody positive cells to B cells (%) at 10 nM [%]	Proportion of chimeric antibody positive cells to B cells (%) at 100 nM [%]
B1	91	97	97
B2	15	32	59
B3	38	91	99
B4	2	1	2
B5	6	15	23
B6	2	6	22

Biological target: T4, monkey CD19 on HEK293T-monkey CD19 cells (monkey)
T4 construct: whole, on cells
Assay: FACS on HEK293T-monkey CD19 cells
Procedure: as §1, with “After” for “The desired cells were scale-up cultured in a T-75 cell culture flask to the logarithmic growth phase. For the adherent cell CHO-K1, the medium was aspirated, the cells were washed 2 times with a PBS buffer, and then digested with trypsin. After”
HEK293T-monkey CD19 cells were subjected to FACS detection and data analysis according to the method in example 5.2. […] The same method was used to detect binding of the chimeric antibodies to HEK293T cells.

Binder	EC50 [nM]	Maximum mean fluorescence intensity
B1	0.94	99100
B2	1.76	75000
B3	2.08	173000
B4		597
B5	6.11	80000
B6	16.7	28700
